The target of this test is T1, Cobrotoxin (N. Atra, Miami Serpentarium) (Naja atra, UniProt P60770 22-83).
T1 sequence: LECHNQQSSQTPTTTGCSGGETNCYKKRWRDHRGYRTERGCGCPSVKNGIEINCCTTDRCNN
Description: panning, phage ELISA and purified-VHH ELISA on coated toxin.

B1: Anti-cobrotoxin VHH (B9) (VHH)
VHH: QVQLQESGGGLAQAGGSLRLSCSASRNIFRVYGWYRQAPGKQREWVASITRDDSTAYADSVKGRFTISRDSAKNTMYLQMSSLRLEDTSTYYCAAQSISGTIQWGQGTQVTVSS
notes: also called VHH candidate against cobrotoxin
In the case of B1, the binding result is on record as “binds”.

Source of the values: US20200157197A1 (VENOMYX, published 2020).
